Experiment [1] deals with T1, human fibronectin-derived control peptide (extra type III structural domain) (human).
T1 construct: Synthesized by Pepscan Presto; coated on ELISA plates
T1 peptide: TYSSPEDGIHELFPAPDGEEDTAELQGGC
Nature of the experiment: peptide ELISA. As to the method: (§1) After adding 1 M […], optical densities was measured at a wavelength of 450 nm (reference wavelength of 655 nm) using a microplate reader (BioRad).
(§2) Ninety six-wells flat-bottom ELISA plates (Corning) were coated with 10 ng/well human CD134-derived peptide (synthesized by Pepscan Presto, Lelystad, The Netherlands), which corresponded to amino acid sequence of truncated CRD3 A1-module-CRD4 subdomain A1 module (see SEQ ID NO. 38) or with 10 ng/well human fibronectin-derived control peptide (synthesized by Pepscan Presto, Lelystad, The Netherlands), which corresponded to amino acid sequence of extra type III structural domain (see SEQ ID NO. 37) in PBS o/n at 4° C. After extensive washing in PBS/0.05% Tween 20, plates were blocked in PBS/0.05% Tween 20/1% BSA fraction V (Roche) for 1 hour at RT. […] After extensive washing in PBS/0.05% Tween 20, binding of antibodies was determined with 1:5000 diluted horseradish peroxidase-conjugated goat anti-human IgG Fcγ-specific antibodies (Jackson ImmunoResearch) for 1 hour at RT, followed by a ready-to-use solution of TMB substrate (Invitrogen) for colorimetric detection. After adding 1 M H₂SO₄, optical densities was measured at a wavelength of 450 nm (reference wavelength of 655 nm) using a microplate reader (BioRad).

Experiment [2] concerns the target T2, human CD134-derived peptide (truncated CRD3 A1-module-CRD4 subdomain A1-module) (human).
T2 construct: Synthesized by Pepscan Presto; coated on ELISA plates
T2 peptide: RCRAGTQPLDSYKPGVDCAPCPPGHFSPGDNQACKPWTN
The experiment can be described thus: peptide ELISA, 10 ng/well peptide coated. As to the method: as §1, §2

Experiment [3] deals with T3, human CD134 (full-length, on cells) (human, UniProt P43489 29-277).
T3 construct: also called OX40; TNFRSF4
T3 sequence: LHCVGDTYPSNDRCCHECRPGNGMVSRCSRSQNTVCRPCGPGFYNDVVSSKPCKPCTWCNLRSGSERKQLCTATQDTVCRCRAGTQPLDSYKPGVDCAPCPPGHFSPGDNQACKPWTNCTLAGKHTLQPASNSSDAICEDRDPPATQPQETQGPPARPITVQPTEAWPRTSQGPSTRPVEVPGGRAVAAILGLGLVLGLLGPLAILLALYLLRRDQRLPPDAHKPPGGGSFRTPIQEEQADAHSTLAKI
Nature of the experiment: flow cytometry, stable CD134 293-F clone no. 23. On the procedure: Full-length human CD134 (SEQ ID NO. 1) was re-cloned in a pcDNA3.1-derived expression plasmid (see Example 11 (d) below). […] After extensive washing in PBS/BSA/NaN₃, cells were subsequently incubated with 1:200 diluted PE-conjugated goat anti-mouse IgG (Fcγ specific) antibodies (Jackson ImmunoResearch) or with 1:200 diluted PE-conjugated goat anti-human IgG (Fcγ specific) antibodies (Jackson ImmunoResearch) for 30 minutes at 4° C. After extensive washing in PBS/BSA/NaN₃, cells were fixed in 2% formaldehyde in PBS/BSA/NaN₃ for 30 minutes at 4° C. Binding of antibodies was measured using flow cytometry (FACSCalibur; BD Biosciences).
A general note: Flow cytometry measures light scatter and fluorescence of single cells or particles in a stream.

For experiment [4], the target named is T4, truncated human CD134 'truncated (tc) CRD4' construct (human, UniProt P43489 147-277).
T4 construct: also called truncated CRD4
T4 sequence: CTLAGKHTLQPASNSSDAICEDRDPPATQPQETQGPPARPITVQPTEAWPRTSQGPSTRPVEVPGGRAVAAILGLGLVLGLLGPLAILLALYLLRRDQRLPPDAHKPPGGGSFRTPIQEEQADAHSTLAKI
The experiment can be described thus: flow cytometry, transiently transfected 293-F cells. On the procedure: After 48 h, surface human CD134 expression on transfected cells was analyzed by FACS analysis. To this end, transfected cells were harvested and put at 1-2×10⁶ cells/mL in ice-chilled PBS/BSA/NaN₃ supplemented with 50 μg/mL purified human IgG (Sigma; blocking Fey receptors). […] After extensive washing in PBS/BSA/NaN₃, cells were subsequently incubated with 1:200 diluted PE-conjugated goat anti-mouse IgG (Fcγ specific) antibodies (Jackson ImmunoResearch) or with 1:200 diluted PE-conjugated goat anti-human IgG (Fcγ specific) antibodies (Jackson ImmunoResearch) for 30 minutes at 4° C. […] After extensive washing in PBS/BSA/NaN₃, cells were subsequently incubated with 1:200 diluted PE-conjugated goat anti-mouse IgG (Fcγ specific) antibodies (Jackson ImmunoResearch) for 30 minutes at 4° C. After extensive washing in PBS/BSA/NaN₃, cells were fixed in 2% formaldehyde in PBS/BSA/NaN₃ for 30 minutes at 4° C. Binding of antibodies was measured using flow cytometry (FACSCalibur; BD Biosciences).

Experiment [5] concerns the target T3, human CD134 (full-length, on cells). Nature of the experiment: flow cytometry, PHA-stimulated human CD3+ T lymphocytes.
Experiment [6] deals with T5, recombinant human CD134:human Fcγ (IgG1) fusion protein (human, UniProt P01857-1 100-330 = IgG part, limits assumed).
T5 construct: domain: Fcγ (IgG1); Bought (R&D Systems); also called rhuCD134
Nature of the experiment: ELISA, plate-bound CD134:Fc, biotinylated antibody detected with streptavidin-HRP. Background: In an ELISA, binding on a coated surface is turned into a signal by an enzyme label.

The target in experiment [7] is T5, recombinant human CD134:human Fcγ …. Nature of the experiment: competition ELISA, plate-bound CD134:Fc; competitor biotinylated mouse 12H3 at 20 ng/mL. On the procedure: Ninety six-wells flat-bottom ELISA plates (Corning) were coated with 50 ng/well recombinant human CD134:human Fcγ (IgG1) fusion protein (R&D Systems) in PBS o/n at 4° C. After extensive washing in PBS/0.05% Tween 20, plates were blocked in PBS/0.05% Tween 20/1% BSA fraction V (Roche) for 1 hour at RT. […] After adding 1 M H₂SO₄, optical densities were measured at a wavelength of 450 nm (reference wavelength of 655 nm) using a microplate reader (BioRad).

Experiment [8] addresses T3, human CD134 (full-length, on cells). The experiment can be described thus: flow cytometry, stable CD134 293-F clone no. 5, biotinylated antibody detected with streptavidin-PE.
Experiment [9] shares this target. Nature of the experiment: competition flow cytometry, stable CD134 293-F clone no. 5; competitor biotinylated mouse 12H3 at 700 ng/mL. As to the method:
Full-length human CD134 (SEQ ID NO1) was re-cloned in a pcDNA3.1-derived expression plasmid (see Example 11 (c) above). […] After extensive washing in PBS/BSA/NaN₃, cells were fixed in 2% formaldehyde in PBS/BSA/NaN₃ for 30 minutes at 4° C.

Where only a bound is given, the exact number is not on record here.

B1: mouse anti-human CD134 monoclonal antibody clone 12H3 (antibody, V domains shown)
VH: EVQLQQSGPELVKPGASVKISCKTSGYTFKDYTMHWVKQSHGKSLEWIGGIYPNNGGSTYNQNFKDKATLTVDKSSSTAYMEFRSLTSEDSAVYYCARMGYHGPHLDFDVWGAGTTVTVSP
VL: DIVMTQSHKFMSTSLGDRVSITCKASQDVGAAVAWYQQKPGQSPKLLIYWASTRHTGVPDRFTGGGSGTDFTLTISNVQSEDLTDYFCQQYINYPLTFGGGTKLEIKR
notes: also called m12H3; parental mouse anti-human CD134 antibody clone 12H3
What is called EC50 is the concentration that produces a half-maximal response. What is called IC50 is the concentration needed to halve the response being measured. Take B1: the binding result in experiment [1] is “no binding (tested: 50.0 µg/mL)”; in [2], “binds”; in experiment [4] it was “no binding (tested: 20.0 µg/mL)”. Further, the EC50 was more than 0.2 µg/mL in experiment [3], approximately 0.5 µg/mL in experiment [5], approximately 0.02 µg/mL in experiment [6] and approximately 0.7 µg/mL in experiment [8]. Also, the IC50 in experiment [7] is approximately 0.75 µg/mL; in experiment [9] it was approximately 3.5 µg/mL.

The values above are taken from US20140377284A1 (BIOCEROX PRODUCTS B V, published 2014).
